± gives the uncertainty stated by the source.
Experiment: self-splicing fitness, log relative to wild type (ln ratio); higher = more splicing; Tetrahymena group I intron in knt gene, E. coli kanamycin selection, DiMSum; sequences stand for … in CUCUCU…GGAGGGAAAAGUUAUCAGGCAUGCACCUGGUAGCUAGUCUUUAAACCAAUAGAUUGCAUCGGUUUAAAAGGCAAGACCGUCAAAUUGCGGGAAAGGGGUCAACAGCCGUUCAGUACCAAGUCUCAGGGGAAACUUUGAGAUGGCCUUGCAAAGGGUAUGGUAAUAAGCUGACGGACAUGGUCCUAACCACGCAGCCAAGUCCUAAGUCAACAGAUCUUCUGUUGAUAUGGAUGCAGUUCACAGACUAAAUGUCGGUCGGGGAAGAUGUAUUCUUCUCAUAAGAUAUAGUCGGACCUCUCCUUAAUGGGAGCUAGCGGAUGAAGUGAUGCAACACUGGAGCCGCUGGGAACUAAUUUGUAUGCGAAAGUAUAUUGAUUAGUUUUGGAGUACUCGUGGUCG
Method in brief: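 Six replicate transformations of E. coli BL21(DE3) with a pET-22b(+) library were grown overnight at 37°C or 30°C. The library randomised all eight P1ex-region intron nucleotides, the intron lying in the knt kanamycin-resistance gene, and plates were LB agar with or without 25 μg/mL kanamycin plus 100 μg/mL carbenicillin, 50 μM IPTG and 0.2% rhamnose. Pooled colonies were amplicon-sequenced on an Illumina HiSeq 2500, and fitness is the DiMSum error-weighted combination of wild-type-normalised replicate fold changes, kanamycin versus none.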

Sequence	self-splicing fitness (ln) (30 °C)	self-splicing fitness (ln) (37 °C)
ACACAGCAAUAUUACGGCAC	-1.6 ± 0.066	-0.725 ± 0.084
GCUUAGCAAUAUUACGGGUA	-1.43 ± 0.15	-0.513 ± 0.12
AACCAGCAAUAUUACGACAG	-2.65 ± 0.083	-0.775 ± 0.099
AAUUAGCAAUAUUACGCAAG	-0.991 ± 0.13	-1.4 ± 0.19
AUCUAGCAAUAUUACGGUCU	-0.756 ± 0.078	-0.908 ± 0.098
ACGCAGCAAUAUUACGAAGC	-3.38 ± 0.24	-1.6 ± 0.28
ACGGAGCAAUAUUACGCAUU	-3.43 ± 0.43	-2.85 ± 0.34
CUCAAGCAAUAUUACGUUCG	-3.18 ± 0.18	-3 ± 0.26
GGAGAGCAAUAUUACGUAGC	–	-0.906 ± 0.37
GGCAAGCAAUAUUACGUUUC	-0.714 ± 0.1	-0.0706 ± 0.14
CCAAAGCAAUAUUACGCAGC	-3.4 ± 0.26	-2.49 ± 0.33
GACAAGCAAUAUUACGUACA	-0.573 ± 0.055	-0.314 ± 0.079
CCGGAGCAAUAUUACGUCAC	-3.61 ± 0.34	-2.71 ± 0.38
GUGAAGCAAUAUUACGCCUC	-1.22 ± 0.25	-1.09 ± 0.48
GCCUAGCAAUAUUACGCCAG	-2.75 ± 0.27	-2.67 ± 0.48
CUAUAGCAAUAUUACGUGCC	-2.54 ± 0.32	–
UUGUAGCAAUAUUACGCUUA	-1.77 ± 0.25	-1 ± 0.2
GGAUAGCAAUAUUACGCACG	-1.12 ± 0.16	-0.963 ± 0.15
AGACAGCAAUAUUACGUAUU	-2.58 ± 0.11	-1.4 ± 0.12
GACAAGCAAUAUUACGAAUA	-2.03 ± 0.12	-1.17 ± 0.099
GGGCAGCAAUAUUACGAGCA	-1.98 ± 0.1	-1.37 ± 0.11
AGGGAGCAAUAUUACGGUGC	-4.76 ± 0.45	-3.06 ± 0.47
CAAUAGCAAUAUUACGUGCG	-0.75 ± 0.072	-0.0882 ± 0.08
CAUCAGCAAUAUUACGUUGU	-3.52 ± 0.14	-2.92 ± 0.16
UGACAGCAAUAUUACGCAUU	-3.85 ± 0.18	-2.4 ± 0.14
GGGCAGCAAUAUUACGUUUA	-1.09 ± 0.069	-0.227 ± 0.094

Sequence	self-splicing fitness (ln) (30 °C)	self-splicing fitness (ln) (37 °C)
UGUAAGCAAUAUUACGCGAC	-2.37 ± 0.27	-2.4 ± 0.36
UGAAAGCAAUAUUACGUGGG	-3.67 ± 0.2	-2.4 ± 0.17
GUGUAGCAAUAUUACGGCCG	-0.432 ± 0.22	-0.71 ± 0.34
GAGCAGCAAUAUUACGCUGA	-2.8 ± 0.19	-2.13 ± 0.2
CCGAAGCAAUAUUACGGUCC	-3.68 ± 0.46	-2.26 ± 0.26
GGACAGCAAUAUUACGCUGU	-2.73 ± 0.21	-2.96 ± 0.31
UUAUAGCAAUAUUACGGUCU	-3.22 ± 0.25	-1.28 ± 0.22
AAAGAGCAAUAUUACGGGCU	-3.06 ± 0.17	-3.58 ± 0.34
UGAAAGCAAUAUUACGUAGC	-3.52 ± 0.37	-1.5 ± 0.36
GUUAAGCAAUAUUACGGCCG	-1.61 ± 0.2	-0.597 ± 0.37
GGUCAGCAAUAUUACGGCCU	-2.84 ± 0.29	-2.34 ± 0.45
CCAAAGCAAUAUUACGCGCA	-3.48 ± 0.28	-3.13 ± 0.24
AGAGAGCAAUAUUACGCGCG	–	-1.3 ± 0.48
AUUCAGCAAUAUUACGUGGU	-3 ± 0.12	-0.786 ± 0.099
AAGUAGCAAUAUUACGCACA	-0.522 ± 0.088	-0.00649 ± 0.14
UGAAAGCAAUAUUACGAUUG	-0.872 ± 0.11	-0.573 ± 0.14
CGUUAGCAAUAUUACGUGGG	-1.39 ± 0.12	-1.79 ± 0.16
CAGGAGCAAUAUUACGCACU	-2.54 ± 0.5	-1.2 ± 0.34
GUACAGCAAUAUUACGGAUC	-0.86 ± 0.081	-0.551 ± 0.11
UUUGAGCAAUAUUACGGCAU	-1.56 ± 0.33	-1.62 ± 0.3
UCUAAGCAAUAUUACGGCAG	-1.35 ± 0.13	-0.508 ± 0.14
UCGCAGCAAUAUUACGAGGA	-2.88 ± 0.19	-0.7 ± 0.12
ACAUAGCAAUAUUACGUCGG	-2.1 ± 0.099	-1.16 ± 0.1
AGAAAGCAAUAUUACGAGAA	-2.63 ± 0.27	-1.24 ± 0.25
UCCAAGCAAUAUUACGGACU	-3.5 ± 0.21	-2.28 ± 0.18
UGGCAGCAAUAUUACGGUAC	-2.66 ± 0.2	-2.01 ± 0.31

Sequence	self-splicing fitness (ln) (30 °C)	self-splicing fitness (ln) (37 °C)
CCGCAGCAAUAUUACGUAUA	-3.6 ± 0.16	-3.03 ± 0.19
AUCAAGCAAUAUUACGUUUC	–	-1.52 ± 0.34
UACAAGCAAUAUUACGCUAG	-2.16 ± 0.11	-1.13 ± 0.11
CCCAAGCAAUAUUACGGGCG	-3.29 ± 0.17	-1.79 ± 0.15
CGAGAGCAAUAUUACGUGUA	-3.34 ± 0.22	-2.9 ± 0.23
UUGAAGCAAUAUUACGGCAC	-0.928 ± 0.13	-0.814 ± 0.17
CCGCAGCAAUAUUACGGGCG	-2.13 ± 0.11	-1.95 ± 0.12
UCAAAGCAAUAUUACGGGCA	-0.629 ± 0.063	-0.273 ± 0.069
AGGCAGCAAUAUUACGUUUU	-1.59 ± 0.065	-0.435 ± 0.079
CGAAAGCAAUAUUACGACUC	-2.84 ± 0.14	-1.63 ± 0.14
GGGCAGCAAUAUUACGCUAU	-1.13 ± 0.077	-0.411 ± 0.094
UGAAAGCAAUAUUACGGAUU	-1.99 ± 0.17	-1.09 ± 0.18
UCUUAGCAAUAUUACGGUAA	-2.62 ± 0.23	-1.7 ± 0.32
CAUGAGCAAUAUUACGAAGG	-3.17 ± 0.19	-2.05 ± 0.21
GUUAAGCAAUAUUACGUCGG	-2.75 ± 0.2	-2.55 ± 0.25
CUAGAGCAAUAUUACGGGGC	-3.9 ± 0.33	-2.31 ± 0.3
GGGGAGCAAUAUUACGAUAC	-2.37 ± 0.3	-0.552 ± 0.27
GUAGAGCAAUAUUACGGCUA	-0.487 ± 0.11	0.641 ± 0.16
GUGUAGCAAUAUUACGAAUG	–	-1.51 ± 0.25
GGGAAGCAAUAUUACGCAGU	-2 ± 0.13	0.176 ± 0.14
CCCUAGCAAUAUUACGCCGU	-2.57 ± 0.25	-2.42 ± 0.39
GAUAAGCAAUAUUACGGCGC	0.0448 ± 0.13	-0.881 ± 0.13
CCAGAGCAAUAUUACGGUUC	-4.36 ± 0.21	-2.38 ± 0.18
GCUAAGCAAUAUUACGUAAU	-0.775 ± 0.088	-0.189 ± 0.11
GGCUAGCAAUAUUACGAGAA	–	-0.208 ± 0.37
GUACAGCAAUAUUACGGCGC	-0.365 ± 0.082	-0.0882 ± 0.095

From the supplement of paper PMC7877785
